Tests used:
G160A = target: T1, G160A (Homo sapiens, UniProt P18827); assay: alanine scan: flow cytometry on HEK-293T cells expressing the mutant clone, 4320 Fab 0.50 ug/mL, normalised to WT CD138; Range %WT Binding 24; Normalized 4320 vs. BB4 60.2
T1 construct: clone of the alanine scanning library on HEK-293T cells; m17 with one substitution; also called CD138 G160A
T1 sequence (CD138 (SDC1), full length, point mutant, looked up): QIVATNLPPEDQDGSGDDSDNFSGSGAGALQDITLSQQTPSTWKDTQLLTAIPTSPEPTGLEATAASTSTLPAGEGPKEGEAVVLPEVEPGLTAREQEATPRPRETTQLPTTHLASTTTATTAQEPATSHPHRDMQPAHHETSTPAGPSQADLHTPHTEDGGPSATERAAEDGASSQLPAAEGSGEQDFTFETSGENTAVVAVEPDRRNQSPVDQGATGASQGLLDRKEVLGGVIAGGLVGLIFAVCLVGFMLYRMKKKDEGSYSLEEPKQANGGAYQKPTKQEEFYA
Procedure: (§1) Serial dilutions of each MAb were tested for immunoreactivity against cells expressing target protein (WT) or vector alone. Validation of target expression and optimization of detection and binding of anti-CD138 antibodies both by flow cytometry was completed in replicate (N=4). The optimal screening concentration for each MAb was determined based on the raw signal values and signal-to-background calculations specifically optimized for each test article. Optimized parameters included the use of 10% goat serum as blocking reagent. Primary antibody staining was for 60 minutes at 25° C. Wash buffer include phosphate buffered saline (divalent metal ion free), pH 7.4. […] Secondary antibodies were diluted 1:400 and incubated for 30 minutes at 25° C.
(§2) Library screens of very-high-affinity mAbs can fail to yield critical residues for antibody binding due to deficiencies of such an assay to detect and differentiate critical vs. less critical binding based on affinity and quantification of cell binding. One common approach in the literature is the use of monovalent antibody derived fragments such as Fab usually weakens binding sufficiently to allow identification of critical residues for binding. […] Binding of each test Ab to each mutant clone in the alanine scanning library was determined, in duplicate, and likewise evaluated by flow cytometry.

G241A = target: T2, G241A (Homo sapiens, UniProt P18827); assay: alanine scan: flow cytometry on HEK-293T cells expressing the mutant clone, 4320 Fab 0.50 ug/mL, normalised to WT CD138; Range %WT Binding 14; Normalized 4320 vs. BB4 53.5
T2 construct: clone of the alanine scanning library on HEK-293T cells; m17 with one substitution; also called CD138 G241A
T2 sequence (CD138 (SDC1), full length, point mutant, looked up): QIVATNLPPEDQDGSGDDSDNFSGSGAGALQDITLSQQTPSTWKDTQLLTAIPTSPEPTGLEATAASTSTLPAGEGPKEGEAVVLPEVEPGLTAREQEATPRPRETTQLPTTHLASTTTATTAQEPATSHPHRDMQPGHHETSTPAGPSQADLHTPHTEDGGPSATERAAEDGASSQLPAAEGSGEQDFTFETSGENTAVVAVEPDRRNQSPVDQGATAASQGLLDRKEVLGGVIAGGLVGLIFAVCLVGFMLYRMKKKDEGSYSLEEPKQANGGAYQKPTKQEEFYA
Procedure: as §1, §2

B1: Fab fragment of mAb 4320 (Fab, V domains shown)
VH: QVQLVQSGAEVKKPGASVKVSCKASGYSFSSYYMHWVRQAPGQGLEWMGTIHPSDSTTNYNQKFQGRVTMTVDTSTRTAYMELSSLRSEDTAVYYCANFVYWGQGTTVTVSS
VL: DIVMTQTPLSLSVTPGQPASISCKSSKSLLYKDGKTYLNWFLQKPGQSPQLLIYVVSTRASGVPDRFSGSGSGTDFTLKISRVEAEDVGVYYCQQLVEYPYTFGQGTKLEIKR
modifications: N-terminal Q1 observed as pyroglutamic acid (PCA) in the 138-2-5 complex
notes: In the crystal structures heavy chain residues 1-213 were traced; also called Fab4320
Mean %WT Binding (G160A): 59.7 %WT
Mean %WT Binding (G241A): 53.5 %WT
